Reference: article PMC3018788 (The EMBO Journal, 2010)

B1: GST-GW182-SD (domain or fragment, D. melanogaster, UniProt Q8SY33 937-1384, looked up)
chain: NENKDWSVAQPTSAATAYTDLVQEFEPGKPWKGSQIKSIEDDPSITPGSVARSPLSINSTPKDADIFANTGKNSPTDLPPLSLSSSTWSFNPNQNYPSHSWSDNSQQCTATSELWTSPLNKSSSRGPPPGLTANSNKSANSNASTPTTITGGANGWLQPRSGGVQTTNTNWTGGNTTWGSSWLLLKNLTAQIDGPTLRTLCMQHGPLVSFHPYLNQGIALCKYTTREEANKAQMALNNCVLANTTIFAESPSENEVQSIMQHLPQTPSSTSSSGTSGGNVGGVGTSANNANSGSAACLSGNNSGNGNGSASGAGSGNNGNSSCNNSAAGGGSSSNNTITTVANSNLVGSSGSVSNSSGVTANSSTVSVVSCTASGNSINGAGTANSSGSKSSANNLASGQSSASNLTNSTNSTWRQTSQNQALQSQSRPSGREADFDYISLVYSIVDD
B2: GST-TNRC6B-SD (domain or fragment, human, UniProt Q9UPQ9-1 1361-1723, looked up)
chain: SSNASWPPEFQPGVPWKGIQNIDPESDPYVTPGSVLGGTATSPIVDTDHQLLRDNTTGSNSSLNTSLPSPGAWPYSASDNSFTNVHSTSAKFPDYKSTWSPDPIGHNPTHLSNKMWKNHISSRNTTPLPRPPPGLTNPKPSSPWSSTAPRSVRGWGTQDSRLASASTWSDGGSVRPSYWLVLHNLTPQIDGSTLRTICMQHGPLLTFHLNLTQGTALIRYSTKQEAAKAQTALHMCVLGNTTILAEFATDDEVSRFLAQAQPPTPAATPSAPAAGWQSLETGQNQSDPVGPALNLFGGSTGLGQWSSSAGGSSGADLAGASLWGPPNYSSSLWGVPTVEDPHRMGSPAPLLPGDLLGGGSDSI

Experiments:
[1] = biological target: recombinant MBP-tagged DmPABPC1 (D. melanogaster, UniProt P21187 1-634); test: pull-down
recombinant MBP-tagged DmPABPC1, sequence (P21187 whole entry): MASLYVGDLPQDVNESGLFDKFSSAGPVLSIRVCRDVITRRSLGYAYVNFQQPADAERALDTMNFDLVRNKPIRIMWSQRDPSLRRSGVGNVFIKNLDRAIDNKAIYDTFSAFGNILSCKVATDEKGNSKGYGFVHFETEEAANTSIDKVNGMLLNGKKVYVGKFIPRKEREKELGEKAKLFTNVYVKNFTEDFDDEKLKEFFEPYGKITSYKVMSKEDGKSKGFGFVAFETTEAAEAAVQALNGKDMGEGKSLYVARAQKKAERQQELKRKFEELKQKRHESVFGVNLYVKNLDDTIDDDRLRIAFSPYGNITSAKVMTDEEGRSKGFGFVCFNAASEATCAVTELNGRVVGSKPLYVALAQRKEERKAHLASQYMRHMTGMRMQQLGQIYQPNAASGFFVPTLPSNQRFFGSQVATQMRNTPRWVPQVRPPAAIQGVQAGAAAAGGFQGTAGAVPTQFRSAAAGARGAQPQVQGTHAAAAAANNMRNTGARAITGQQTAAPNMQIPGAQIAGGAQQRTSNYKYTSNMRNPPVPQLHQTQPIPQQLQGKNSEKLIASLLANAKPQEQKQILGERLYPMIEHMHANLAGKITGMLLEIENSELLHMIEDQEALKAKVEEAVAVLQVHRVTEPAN

[2] = biological target: recombinant MBP-tagged HsPABPC1 (human, UniProt P11940 1-636); test: pull-down
recombinant MBP-tagged HsPABPC1, sequence (P11940 whole entry): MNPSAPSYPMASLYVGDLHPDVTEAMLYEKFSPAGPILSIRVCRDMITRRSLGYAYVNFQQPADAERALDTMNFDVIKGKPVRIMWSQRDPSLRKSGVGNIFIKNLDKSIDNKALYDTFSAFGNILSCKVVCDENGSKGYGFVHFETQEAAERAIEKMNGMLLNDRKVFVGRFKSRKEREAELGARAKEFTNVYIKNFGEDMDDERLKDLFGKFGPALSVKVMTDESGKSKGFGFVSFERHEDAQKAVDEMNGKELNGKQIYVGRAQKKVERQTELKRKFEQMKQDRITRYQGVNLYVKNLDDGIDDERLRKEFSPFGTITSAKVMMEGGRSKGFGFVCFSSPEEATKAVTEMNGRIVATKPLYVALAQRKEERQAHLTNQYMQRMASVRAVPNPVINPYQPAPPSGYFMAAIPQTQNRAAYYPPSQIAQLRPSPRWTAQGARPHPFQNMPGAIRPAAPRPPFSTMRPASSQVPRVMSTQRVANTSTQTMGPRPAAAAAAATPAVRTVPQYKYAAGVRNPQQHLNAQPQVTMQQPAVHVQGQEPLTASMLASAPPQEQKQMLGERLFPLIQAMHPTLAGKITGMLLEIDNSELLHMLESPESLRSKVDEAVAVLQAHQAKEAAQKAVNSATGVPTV

binding result [1] | binding result [2] | Binder
binds |  | B1
 | binds | B2
